Data: patent publication US20150010920

Biological target: EGFP-T/C1 (EGFP-E-III-F-172)

B1: protease type X (Sigma, St. Louis) (protein)
chain: ITGTSTVGVGRGVLGDQKNINTTYSTYYYLQDNTRGNGIFTYDAKYRTTLPGSLWADADNQFFASYDAPAVDAHYYAGVTYDYYKNVHNRLSYDGNNAAIRSSVHYSQGYNNAFWNGSQMVYGDGDGQTFIPLSGGIDVVAHELTHAVTDYTAGLIYQNESGAINEAISDIFGTLVEFYANKNPDWEIGEDVYTPGISGDSLRSMSDPAKYGDPDHYSKRYTGTQDNGGVHINSGIINKAAYLISQGGTHYGVSVVGIGRDKLGKIFYRALTQYLTPTSNFSQLRAAAVQSATDLYGSTSQEVASVKQAFDAVGVK
For B1, the “optical change / cleavage (absorbance at 397 nm, SDS-PAGE, MALDI-MS)” value was “this sensor was not cleaved by thrombin and protease type X”.
